In assay [1] the target is T1, human β-Klotho extracellular domain (aa1–992) fused with a 6 × His tag at the C-terminus (human, UniProt Q86Z14 1-992, biotin (EZ-Link Sulfo-NHS-LC-Biotin) in the bio-layer interferometry). As to the kind of experiment: competition with FGF19 (AlphaScreen).
The target in assay [2] is T1, human β-Klotho extracellular domain …. Briefly: competition with FGF21 (AlphaScreen).
Assay [3] shares this target. Briefly: ELISA; solid-phase binding assay.
For assay [4] the target is unchanged. Briefly: BLI.
Assay [5] has the same target. As to the kind of experiment: AlphaScreen, competition with FGF21.
For assay [6] the target is unchanged. Briefly: AlphaScreen, competition with FGF19.
Assay [7] has the same target. As to the kind of experiment: AlphaScreen, biotinylated FGF.

T1 sequence (Q86Z14 53-992): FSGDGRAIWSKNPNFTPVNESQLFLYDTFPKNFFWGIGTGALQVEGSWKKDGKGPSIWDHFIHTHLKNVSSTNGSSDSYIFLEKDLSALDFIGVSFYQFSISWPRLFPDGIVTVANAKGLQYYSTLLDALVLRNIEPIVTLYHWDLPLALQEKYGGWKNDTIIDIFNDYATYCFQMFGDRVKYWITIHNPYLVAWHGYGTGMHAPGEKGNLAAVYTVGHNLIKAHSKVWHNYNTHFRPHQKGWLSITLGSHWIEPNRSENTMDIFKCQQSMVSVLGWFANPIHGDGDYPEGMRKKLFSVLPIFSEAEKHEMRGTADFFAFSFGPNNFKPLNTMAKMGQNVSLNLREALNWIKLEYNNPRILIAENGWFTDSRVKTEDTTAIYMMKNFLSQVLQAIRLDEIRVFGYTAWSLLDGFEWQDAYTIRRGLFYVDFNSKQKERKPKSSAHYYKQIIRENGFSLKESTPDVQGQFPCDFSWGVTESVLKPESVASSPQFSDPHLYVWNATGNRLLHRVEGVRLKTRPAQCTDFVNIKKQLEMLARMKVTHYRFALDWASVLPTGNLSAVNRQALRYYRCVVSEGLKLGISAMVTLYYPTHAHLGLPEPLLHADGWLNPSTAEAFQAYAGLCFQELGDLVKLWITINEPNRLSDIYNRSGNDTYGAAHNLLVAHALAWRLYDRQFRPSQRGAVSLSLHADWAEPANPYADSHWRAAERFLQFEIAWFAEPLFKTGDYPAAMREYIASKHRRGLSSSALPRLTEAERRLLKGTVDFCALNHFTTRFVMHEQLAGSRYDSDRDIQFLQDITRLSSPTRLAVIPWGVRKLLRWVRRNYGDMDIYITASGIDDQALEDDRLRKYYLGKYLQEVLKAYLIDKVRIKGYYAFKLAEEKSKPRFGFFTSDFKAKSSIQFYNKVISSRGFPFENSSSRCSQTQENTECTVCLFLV

B1: FGF21 183-209 183P-A (peptide)
chain: AQPPDVGSSDPLSMVGPSQGRSPSYAS
B1: the concentration for half-maximal inhibition (IC50) in assay [1] is 1 nM; in assay [2], 4.5 nM.

B2: FGF21 183-209 193P-A (peptide)
chain: PQPPDVGSSDALSMVGPSQGRSPSYAS
Molecule B2 showed an IC50 in assay [1] of 5.5 nM.

B3: FGF21 183-209 203R-A (peptide)
chain: PQPPDVGSSDPLSMVGPSQGASPSYAS
As for B3, in assay [1], the half-maximal inhibitory concentration (IC50) came out at 0.28 nM.

B4: mature human FGF21 polypeptide fused with the human Fc fragment at the N-terminus (Fc-FGF21), wild type (Fc fusion)
chain: HPIPDSSPLLQFGGQVRQRYLYTDDAQQTEAHLEIREDGTVGGAADQSPESLLQLKALKPGVIQILGVKTSRFLCQRPDGALYGSLHFDPEACSFRELLLEDGYNVYQSEAHGLPLHLPGNKSPHRDPAPRGPARFLPLPGLPPALPEPPGILAPQPPDVGSSDPLSMVGPSQGRSPSYAS
For the molecule B4, the response in assay [3] was half-maximal at 0.6 nM (EC50). In assay [4], this molecule gave a Kd of 1.36 nM.

B5: mature human FGF21 (ligand)
chain: HPIPDSSPLLQFGGQVRQRYLYTDDAQQTEAHLEIREDGTVGGAADQSPESLLQLKALKPGVIQILGVKTSRFLCQRPDGALYGSLHFDPEACSFRELLLEDGYNVYQSEAHGLPLHLPGNKSPHRDPAPRGPARFLPLPGLPPALPEPPGILAPQPPDVGSSDPLSMVGPSQGRSPSYAS
modifications: biotin (EZ-Link Sulfo-NHS-LC-Biotin) in the solid-phase binding assay; biotinylated as the labelled ligand in AlphaScreen
On to B5, for which the IC50 stood at 23.1 nM in assay [5] and 5.7 nM in assay [6]. The Kd in assay [4] worked out at 5.17 nM. The same molecule came in with an EC50 in assay [7] of 2.81 nM.

B6: FGF21 183-209 (peptide)
chain: PQPPDVGSSDPLSMVGPSQGRSPSYAS
As to B6, the concentration for half-maximal inhibition (IC50) in assay [1] was determined as 0.52 nM; in assay [2] it was 2.1 nM.

B7: FGF21 183-209 188V-A (peptide)
chain: PQPPDAGSSDPLSMVGPSQGRSPSYAS
B7 gave a half-inhibitory concentration (IC50) in assay [1] of 5.2 nM. In other words, the single-digit nanomolar range.

B8: FGF19 C-terminal peptide, WT FGF19^185–216 (peptide)
peptide: SDMFSSPLETDSMDPFGLVTGLEAVRSPSFEK
As to B8, the values for the half-inhibitory concentration (IC50) in assay [5] and in assay [6] were 346 nM and 46.7 nM, respectively.

B9: FGF21 183-209 198G-A (peptide)
chain: PQPPDVGSSDPLSMVAPSQGRSPSYAS
As to B9, the values for the half-inhibitory concentration (IC50) in assay [1] and in assay [2] were 2.6 nM and 6 nM, respectively.

The values are drawn from paper PMC6056499 (2018).
